This data set concerns MS2 coat protein. Nature of the data set: apparent KD of MS2 coat protein; designed switch direction (-1 OFF switch, 1 ON switch): 1; higher = weaker reporter binding. In outline: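 On Illumina chips, designed RNA switches with common flanks were made by stalled E. coli RNA polymerase. Titrations with SNAP-549-labelled MS2 coat protein, doubling from 0.7 or 1.5 nM to 3 µM, were done with no input, with 200 uM small-molecule ligand, or with an oligonucleotide input. Apparent KD is the median per design over clusters, from curve fits of normalised cluster fluorescence.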

Setting [1] is: Eterna round: R95, input ligand: FMN 200 uM.
The mark [2] stands for this setting: Eterna round: R95, input ligand: microRNA oligo, concentration not stated.
Where [3] appears, read: Eterna round: R95, input ligand: none.
Setting [4] is: input ligand: microRNA oligo, concentration not stated.

We go through 20 sequences from the supplement of paper PMC9170038.

“GGGAGACAUGAGGAUCACCCAUGUGGGAGGGAACGAGGAUAUGUAAGGAGAAAGAAUAGAACAGAAGGCGUAGGUG [JR_SS1_Sub021] (puzzle: Same State 1)”: the “apparent KD of MS2 coat protein” value turned out to be 35.8 nM under setting [1], 55.5 nM under setting [2] and 60.8 nM under setting [3].
For the sequence “GGGAGAGACGCAGGAUAUGGUGAGGAUUACCCACUAGAAGGGUGGACAUGAGAAUCGAACAUGAGGAUCACCCAUGUUCUGAGG (Eterna round: R96, puzzle: Same State NG 1)”, the “apparent KD of MS2 coat protein” value is, setting by setting: (input ligand: FMN 200 uM) 64 nM; under setting [4], 44.3 nM; (input ligand: none) 66 nM.
The corresponding values for “GGGAGAGACGGAGGAUAUGGUGGGAGAUAGGGACUAGAAGGUUGGACAUGAGAAUCGAACAUGAGGAUCACCCAUGUUGGGAGG [iteri-3] (Eterna round: R96, puzzle: Same State NG 1)” are 51 nM, 28.3 nM and 63.2 nM.
Consider “GGGAGAGGCGCAGGAUAUGGUGAGGAUCACCCACUAGAAGGGUGCACAUGAGAAUCGGACAUGAGGAUCACCCAUGUCCGGCGC (Eterna round: R96, puzzle: Same State NG 1)”, for which the “apparent KD of MS2 coat protein” value (input ligand: FMN 200 uM) came to 375 nM, the “apparent KD of MS2 coat protein” value under setting [4] amounted to 143 nM and the “apparent KD of MS2 coat protein” value (input ligand: none) was 445 nM.
“GGGCCAGCCUGUGCUGGGCCUUCGCAUGCACAUGAGGAUCACCCAUGUCGUGUACAUGCUUUUUGCUCGUCUUUAAA [Photon Torp-10] (puzzle: Sensor for hsa-mir-208a)”: the “apparent KD of MS2 coat protein” value by setting is: under setting [1], 40.9 nM; under setting [2], 12.6 nM; under setting [3], 42.7 nM.
On to “GGGCCAGCUUGUGCUGGGCCUUCGCAUGCACAUGAGGAUCACCCAUGUCGUGUACAUGCUUGGUGCUCGUCUUUAAA [Photon Torp-12] (puzzle: Sensor for hsa-mir-208a)”, for which the “apparent KD of MS2 coat protein” value worked out at 399 nM under setting [1], 15.7 nM under setting [2] and 266 nM under setting [3].
In the case of “GGGCCAGCUUUUGCUGGGCCAAAGCUUGCACAUGAGGAUCACCCAUGUCGUGUACACGCUUCCUGCCCGUCUUGUUU [Photon Torp-20] (puzzle: Sensor for hsa-mir-208a)”, the “apparent KD of MS2 coat protein” value runs as follows: under setting [1], 26.5 nM; under setting [2], 16.6 nM; under setting [3], 29.4 nM.
As to “GGGCUCUACGGAGGAUAUUCAACACAUGAGGAUCACCCAUGUCAGCCUCCCUGAUCCAGGGAAGCGAAGAAGGCUGCGAGGACG [Eternabot solution 35] (Eterna round: R96, puzzle: Same State NG 2)”, the “apparent KD of MS2 coat protein” value by setting is: (input ligand: FMN 200 uM) 29.1 nM; under setting [4], 21.8 nM; (input ligand: none) 34.5 nM.
For “GGUAAACAUGAGGAUCACCCAUGUAAUAAUAUGGGAGGAUAUGGGAAUUAAUUAAUUAAACCAGAAGGCCUAAUUG [Mat - Same State 1 - D85] (Eterna round: R96, puzzle: Same State 1)” the same measures were 32 nM, 104 nM and 135 nM.
As for “GGUAAACAUGAGGAUCACCCAUGUAAUAAUAUGGGAGGAUAUGGGAAUUAAUUAAUUAAACCAGAAGGCCUAAUUG [Mat - Same State 1 - D85] (puzzle: Same State 1)”, the “apparent KD of MS2 coat protein” value under setting [2] is 167 nM.
As for “GGUACCAACACAGGAUAUGCUAUCCUUUGGGUAGCAGAAGGGUGGUACAUGAGGAUCACCCAUGUGGUGCCAGGGCGUGAGCCC [JL SSNG1 1.95] (Eterna round: R96, puzzle: Same State NG 1)”, the “apparent KD of MS2 coat protein” value by setting is: (input ligand: FMN 200 uM) 383 nM; under setting [4], 1190 nM; (input ligand: none) 4440 nM.
For “GGUAGGUUACUACCAAACAUGAGGAUCACCCAUGUAAAUGGGAAGGAUAUGGUACCUAUUUGGUACCAGAAGGUCUAAAUAAUU [Mat - Same State NG 3 - JL Mod - D94] (Eterna round: R96, puzzle: Same State NG 3)” the same measures were 392 nM, 821 nM and 1020 nM.
For “GGUAGGUUACUACCAAACAUGAGGAUCACCCAUGUAAGUGGGAAGGAUAUGGUACCGAAACGGUACCAGAAGGUCCAUAUAGUA [Mat - Same State NG 3 - JL Mod - D100] (Eterna round: R96, puzzle: Same State NG 3)” the same measures were 324 nM, 564 nM and 1100 nM.
“GGUAGGUUACUACCAAACAUGAGGAUCACCCAUGUAAGUGGGAAGGAUAUGGUACCUAUUUGGUACCAGAAGGUCUAAUUAAUU [Fiskers NG3ss - 2] (Eterna round: R96, puzzle: Same State NG 3)”: the “apparent KD of MS2 coat protein” value was found to be 444 nM (input ligand: FMN 200 uM), 59.9 nM under setting [4] and 1230 nM (input ligand: none).
The corresponding values for “GGUAGGUUACUACCAAACAUGAGGAUCACCCAUGUAAGUGGGAAGGAUAUGGUACCUUUUAGGUACCAGAAGGUCCAUAUAUUU [JL Fiskers NG3ss - 2 mod 8] (Eterna round: R96, puzzle: Same State NG 3)” are 231 nM, 847 nM and 1140 nM.
For “GGUAGGUUACUACCAAACAUGAGGAUCACCCAUGUAGGUGGGAAGGAUAUGGUACCUUUUAGGUACCAGAAGGUCCAUACAAUU [NGss mod of JL's mod of Fisker] (Eterna round: R96, puzzle: Same State NG 3)”, the “apparent KD of MS2 coat protein” value runs as follows: (input ligand: FMN 200 uM) 318 nM; under setting [4], 154 nM; (input ligand: none) 203 nM.
With “GGUAGGUUACUACCAACACAUGAGGAUCACCCAUGUUAGUGGGAGGAUAUGGUACCUAUUUGGUACCAGAAGGUCCAGUUAAUU [Fiskers NG3ss - 15] (Eterna round: R96, puzzle: Same State NG 3)”, the “apparent KD of MS2 coat protein” value is 131 nM (input ligand: FMN 200 uM), 161 nM under setting [4] and 435 nM (input ligand: none).
The corresponding values for “GGUAGGUUACUACCAAUCUACAUGAGGAUCACCCAUGUGUAGGAGGAUAUGGUACCUAUUUGGUACCAGAAGGCCUUAUUAAUU [Fiskers NG3ss - 10] (Eterna round: R96, puzzle: Same State NG 3)” are 143 nM, 81.8 nM and 98.8 nM.
For “GGUAGGUUACUACCAUACAUGAGGAUCACCCAUGUAAAUGGGAAGGAUAUGGUACCUAUUUGGUACCAGAAGGUCCAAAUAAUU [Mat - Same State NG 3 - JL Mod - D96] (Eterna round: R96, puzzle: Same State NG 3)”, the “apparent KD of MS2 coat protein” value stood at 156 nM (input ligand: FMN 200 uM), 645 nM under setting [4] and 1170 nM (input ligand: none).
As to “GGUAUCGGCGCAGGAUAUGCUAUCCUUUGGGUAGCAGAAGGGUGAACAUGAGGAUCACCCAUGUAGGUGCCAGGGCGUGAGCCC [JL SSNG1 1.81] (Eterna round: R96, puzzle: Same State NG 1)”, the “apparent KD of MS2 coat protein” value was determined as 1130 nM (input ligand: FMN 200 uM), 147 nM under setting [4] and 444 nM (input ligand: none).
